# Data: patent publication US10034836B2, “Formulations of guanylate cyclase C agonists and methods of use” (SYNERGY PHARMACEUTICALS, INC., priority 2008, dated 2018)
# Where a SMILES comes first, the peptide text is derived from it. Bridges are numbered along the chain shown (N, C = ends). Primed or numbered codes have the meaning given here. Where no end group is shown, it is not given here. [ ]: non-standard residue; d: D form. PEG3′ = polyethylene glycol such as aminoethyloxy-ethyloxy-acetic acid (AeeA), and polymers thereof
# What was measured:
# [1] = Stability in simulated intestinal fluid (SIF), biological activity by cGMP synthesis in T84 cells; format: in vitro ADME
# Method: FIG. 2A: Biological activity of SP-304 incubated for varying lengths of time in simulated intestinal fluid (SIF). SP-304 samples were incubated for 0, 30, 60, 90, 150, and 300 min, respectively, and then tested for their ability to stimulate cGMP synthesis in T84 cells. The cGMP stimulation activity in the sample at 0 min of incubation time in SIF was taken as 100% biological activity. The activities of the other SP-304 incubation samples were calculated as the percentage of activity relative to that of the 0 min sample. Data points shown are the average of triplicate measurements±SD.
# (§1) FIG. 7A: Biological activity of SP-333 incubated for varying lengths of time in simulated intestinal fluid (SIF). SP-333 samples incubated for 0, 5, 10, 30, 60, and 120 min, respectively, were tested for their ability to stimulate cGMP synthesis in T84 cells. The control sample marked as C120 was produced by incubating SP-333 with heat inactivated SIF for 120 min. Samples from the incubations were removed and heated at 95° C. for 5 min to inactivate digestive enzymes and then used to stimulate cyclic GMP synthesis in T84 cells. The cGMP stimulation activity in the sample at 0 min of incubation time in SIF was taken as 100% biological activity. The activities of the other SP-304 incubation samples were calculated as the percentage of activity relative to that of the 0 min sample. Data points shown are the average of triplicate measurements±SD.
# as §1, with “FIG. 7B:” for “FIG. 7A:”, “of SP-332” for “of SP-333”, “incubating SP-332” for “incubating SP-333”
# FIG. 7C: Biological activity of SP-304 incubated for varying lengths of time in simulated intestinal fluid (SIF). SP-304 samples incubated for 0, 10, and 60 min, respectively, were tested for their ability to stimulate cGMP synthesis in T84 cells. The control samples marked as C0 and C60 were produced by incubating SP-304 with heat inactivated SIF for 0 and 60 min, respectively. Samples from the incubations were removed and heated at 95° C. for 5 min to inactivate digestive enzymes and then used to stimulate cyclic GMP synthesis in T84 cells. The cGMP stimulation activity in the sample at 0 min of incubation time in SIF was taken as 100% biological activity. The activities of the other SP-304 incubation samples were calculated as the percentage of activity relative to that of the 0 min sample. […]
# FIGS. 7G-1-7G-5: Incubation of SP-333 with SIF for 2, 6, 12 and 24 hrs. Effect of SIF digestion on the activity of SP-333 in T84 stimulation assay was determined (FIG. 7G-1) and samples were also analyzed by HPLC (FIGS. 7G2-5). […]
# The stability of SP-304 was also evaluated after incubation with simulated intestinal fluid (SIF) by measuring its biological activity and by HPLC analyses (FIGS. 2A & 2B). […]
# intestinal GC-C receptor = molecular target: T1, intestinal GC-C receptor (Homo sapiens, UniProt P25092); assay: Cyclic GMP stimulation assay in T84 cells; format: cell-based; conditions: for potency in cGMP stimulation assay relative to SP-339 (linaclotide): 30 min exposure (FIG. 6); for potency to stimulate cGMP synthesis in T84 cells relative to SP-333: peggylated analogs of SP-333, 30 min (FIG. 8); for ability to stimulate cGMP synthesis in T84 cells relative to SP-304: 30 min exposure (FIG. 5)
# T1 construct: confluent monolayers of T-84 cells in 24-well plates; host or cells: T84 human colon carcinoma cells
# Excerpt: FIG. 4: Biological activity of truncated peptides of 16-mer SP-304, as measured by stimulation of cGMP synthesis in T84 cells. SP-338 15-mer peptide is indentical to SP-304 except that it lacks Leu at the C-terminus. SP-327, SP-329 and SP-331 lack Leu at their C-termini relative to their corresponding parents, SP-326, SP-328 and SP-330, respectively. Data points shown are the average of duplicate measurements.
# FIG. 5: Stimulation of cGMP synthesis in T84 cells by SP-304 and similar analogs. T84 cells were exposed to test peptides for 30 min and cell lysates were then used to determine intracellular cGMP levels. Data points shown are the average of triplicate measurements±SD.
# FIG. 6: Stimulation of cGMP synthesis in T84 cells by SP-339 (linaclotide) and other linaclotide analogs. T84 cells were exposed to test peptides for 30 min and cell lysates were then used to determine intracellular cGMP levels. Data points shown are the average of triplicate measurements±SD.
# FIG. 8: Stimulation of cGMP synthesis in T84 cells by the peggylated analogs of SP-333. T84 cells were exposed to the indicated peptides for 30 min and cell lysates were used to determine intracellular cGMP levels. Data points shown are the average of triplicate measurements±SD.
# After the 30 min incubation, the medium was aspirated and the reaction was terminated by the addition of 3% perchloric acid. Following centrifugation and the addition of NaOH (0.1 N) to neutralize the pH, intracellular cGMP levels were determined in lysates using a cGMP ELISA kit (Cat. No. 581021; Cayman Chemical, Ann Arbor, Mich.). Peptide incubations were run in duplicate, and samples taken from each incubation were run as duplicates in the ELISA test.
# The ability of the GCC agonist peptide to bind to and activate the intestinal GC-C receptor was tested using T84 human colon carcinoma cell line. Human T84 colon carcinoma cells were obtained from the American Type Culture Collection. Cells were grown in a 1:1 mixture of Ham's F-12 medium and Dulbecco's modified Eagle's medium (DMEM) supplemented with 10% fetal bovine serum, 100 U penicillin/ml, and 100 μg/ml streptomycin. The cells were fed fresh medium every third day and split at a confluence of approximately 80%.
# Biological activity of the GCC agonist peptides was assayed as previously reported (Shailubhai, et al., Cancer Research 60, 5151-5157 (2000)). Briefly, the confluent monolayers of T-84 cells in 24-well plates were washed twice with 250 μl of DMEM containing 50 mM HEPES (pH 7.4), pre-incubated at 37° C. for 10 min with 250 μl of DMEM containing 50 mM HEPES (pH 7.4) and 1 mM isobutylmethylxanthine (IBMX), followed by incubation with GCC agonist peptides (0.1 nM to 10 µM) for 30 min. The medium was aspirated, and the reaction was terminated by the addition of 3% perchloric acid. Following centrifugation, and neutralization with 0.1 N NaOH, the supernatant was used directly for measurements of cGMP using an ELISA kit (Caymen Chemical, Ann Arbor, Mich.).
# An additional strategy to render peptides more resistant towards digestion by digestive proteases is to peggylate them at the N- and C-terminus. The peptide SP-333 was peggylated with the aminoethyloxy-ethyloxy-acetic acid (Aeea) group at the C-terminus (SP-347) or at the N-terminus (SP-350) or at both termini (SP-343). Cyclic GMP synthesis in T84 cells was measured by the method as described above.
# T1 sequence (P25092 24-1073): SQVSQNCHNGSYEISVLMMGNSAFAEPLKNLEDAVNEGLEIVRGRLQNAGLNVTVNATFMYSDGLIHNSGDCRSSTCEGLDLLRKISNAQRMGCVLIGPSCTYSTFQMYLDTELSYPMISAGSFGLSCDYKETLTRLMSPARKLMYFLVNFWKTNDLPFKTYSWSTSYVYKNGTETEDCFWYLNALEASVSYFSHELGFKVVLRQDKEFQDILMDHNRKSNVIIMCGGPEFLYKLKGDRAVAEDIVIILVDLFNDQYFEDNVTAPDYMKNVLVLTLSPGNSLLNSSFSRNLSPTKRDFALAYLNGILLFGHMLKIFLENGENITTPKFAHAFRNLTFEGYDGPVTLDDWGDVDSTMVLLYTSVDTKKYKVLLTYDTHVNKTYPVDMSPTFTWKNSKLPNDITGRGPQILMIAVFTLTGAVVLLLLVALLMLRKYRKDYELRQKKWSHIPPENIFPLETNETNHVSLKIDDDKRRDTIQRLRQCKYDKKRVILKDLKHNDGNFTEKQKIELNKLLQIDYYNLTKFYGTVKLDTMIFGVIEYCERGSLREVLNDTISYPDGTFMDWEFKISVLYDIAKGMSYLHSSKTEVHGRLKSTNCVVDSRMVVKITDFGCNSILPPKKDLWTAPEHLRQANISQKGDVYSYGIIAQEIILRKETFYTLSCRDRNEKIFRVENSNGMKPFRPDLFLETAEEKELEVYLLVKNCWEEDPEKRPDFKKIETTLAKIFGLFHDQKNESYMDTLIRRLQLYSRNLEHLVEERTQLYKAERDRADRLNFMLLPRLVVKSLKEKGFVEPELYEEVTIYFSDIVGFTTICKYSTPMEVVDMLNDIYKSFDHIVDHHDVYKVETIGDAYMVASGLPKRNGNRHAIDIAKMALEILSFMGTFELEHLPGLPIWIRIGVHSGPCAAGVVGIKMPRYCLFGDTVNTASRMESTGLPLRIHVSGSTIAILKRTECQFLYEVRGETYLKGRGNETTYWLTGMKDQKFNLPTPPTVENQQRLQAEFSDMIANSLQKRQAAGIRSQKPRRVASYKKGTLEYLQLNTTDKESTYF
compound,measurement,setting,value
"CC(C)C[C@@H]1NC(=O)[C@H](CCC(=O)O)NC(=O)[C@@H](NC(=O)[C@H](CCC(=O)O)NC(=O)[C@H](CC(=O)O)NC(=O)[C@@H](N)CC(N)=O)CSSC[C@@H]2NC(=O)[C@H](C)NC(=O)[C@H](C(C)C)NC(=O)[C@H](CC(N)=O)NC(=O)[C@H](C(C)C)NC(=O)[C@H](CSSC[C@@H](C(=O)N[C@H](CC(C)C)C(=O)O)NC(=O)CNC(=O)[C@H]([C@@H](C)O)NC2=O)NC1=O [SP-332, Asn^1-Asp^2-Glu^3-Cys^4-Glu^5-Leu^6-Cys^7-Val^8-Asn^9-Val^10-Ala^11-Cys^12-Thr^13-Gly^14-Cys^15-dLeu^16] (H-NDECELCVNVACTGC[dL]-OH; disulfide 4-12, 7-15)",potency following incubation with SIF,[1],minor reduction in potency
Asn^1-Asp^2-Glu^3-Cys^4-Glu^5-Leu^6-Cys^7-Val^8-Asn^9-Val^10-Ala^11-Cys^12-Thr^13-Gly^14-Cys^15 (NDECELCVNVACTGC) [SP-338],biological activity retained relative to full length 16-mer SP-304 (cGMP synthesis in T84 cells),"intestinal GC-C receptor; peptide 1.0 μM, 30 min (FIG. 4)",about 80%
"Asn^1-Phe^2-Cys^3-Cys^4-Glu^5-Phe^6-Cys^7-Cys^8-Asn^9-Pro^10-Ala^11-Cys^12-Thr^13-Gly^14-Cys^15-Tyr^16 (NFCCEFCCNPACTGCY; disulfide 4-12, 7-15, 3-8) [SP-354]",potency in cGMP stimulation assay relative to SP-339 (linaclotide),intestinal GC-C receptor,virtually identical to SP-339
"Asn^1-Phe^2-Cys^3-Cys^4-Glu^5-Ser^6-Cys^7-Cys^8-Asn^9-Pro^10-Ala^11-Cys^12-Thr^13-Gly^14-Cys^15-Tyr^16 (NFCCESCCNPACTGCY; disulfide 4-12, 7-15, 3-8) [SP-353]",potency in cGMP stimulation assay relative to SP-339 (linaclotide),intestinal GC-C receptor,more potent than SP-339
Cys^1-Cys^2-Glu^3-Tyr^4-Cys^5-Cys^6-Asn^7-Pro^8-Ala^9-Cys^10-Thr^11-Gly^12-Cys^13-dTyr^14 [SP-355],potency in cGMP stimulation assay relative to SP-339 (linaclotide),intestinal GC-C receptor,considerably less potency
PEG3-dAsn^1-Asp^2-Glu^3-Cys^4-Glu^5-Leu^6-Cys^7-Val^8-Asn^9-Val^10-Ala^11-Cys^12-Thr^13-Gly^14-Cys^15-dLeu^16 ([PEG3′][dN]DECELCVNVACTGC[dL]; ends and bridges not checked) [SP-350],potency to stimulate cGMP synthesis in T84 cells relative to SP-333,intestinal GC-C receptor,comparable to SP-333
PEG3-dAsn^1-Asp^2-Glu^3-Cys^4-Glu^5-Leu^6-Cys^7-Val^8-Asn^9-Val^10-Ala^11-Cys^12-Thr^13-Gly^14-Cys^15-dLeu^16-PEG3 ([PEG3′][dN]DECELCVNVACTGC[dL][PEG3′]; ends and bridges not checked) [SP-343],potency to stimulate cGMP synthesis in T84 cells relative to SP-333,intestinal GC-C receptor,considerably less potent
dAsn^1-Asp^2-Glu^3-Cys^4-Glu^5-Leu^6-Cys^7-Val^8-Asn^9-Val^10-Ala^11-Cys^12-Thr^13-Gly^14-Cys^15-dLeu^16-PEG3 ([dN]DECELCVNVACTGC[dL][PEG3′]; ends and bridges not checked) [SP-347],potency to stimulate cGMP synthesis in T84 cells relative to SP-333,intestinal GC-C receptor,comparable to SP-333
dAsn^1-Asp^2-Glu^3-Cys^4-Glu^5-dLeu^6-Cys^7-Val^8-Asn^9-Val^10-Ala^11-Cys^12-Thr^13-Gly^14-Cys^15-dLeu^16 ([dN]DECE[dL]CVNVACTGC[dL]; ends and bridges not checked) [SP-337],ability to stimulate cGMP synthesis in T84 cells relative to SP-304,intestinal GC-C receptor,virtually complete loss of biological activity
"dAsn^1-dAsp^2-dGlu^3-Cys^4-Glu^5-Leu^6-Cys^7-Val^8-Asn^9-Val^10-Ala^11-Cys^12-Thr^13-Gly^14-Cys^15-dLeu^16 ([dN][dD][dE]CELCVNVACTGC[dL]; disulfide (positions not given here); also: disulfides, number and pairing not given here) [SP-335]",ability to stimulate cGMP synthesis in T84 cells relative to SP-304,intestinal GC-C receptor,comparable ability
